Assay results taken from article PMC4248295.

Target: T1, MSL2 CXC domain (Drosophila melanogaster, UniProt P50534 520-570, C560G)
T1 sequence: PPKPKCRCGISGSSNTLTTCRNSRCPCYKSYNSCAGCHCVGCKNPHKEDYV
Experiment: crystal structure

B1: (GC)6 (12 bp) (dsDNA)
DNA 1: GCGCGCGCGCGC
DNA 2: GCGCGCGCGCGC
  binding result: binds
